Results on 12 molecules are retold here after publication PMC10720262 (Cell Reports, 2023).

The koff is the first-order rate constant of dissociation. High values mean fast dissociation, low ones slow dissociation. As usually defined, the kon is the rate constant with which the complex forms.

Changes are numbered by the printed parent chain. Some results are limits rather than exact numbers.

For experiment [1], the target named is recombinant full-length PfCSP (Plasmodium falciparum circumsporozoite protein, strain NF54) (Plasmodium falciparum NF54, UniProt P19597). As to the kind of experiment: cell-based or functional assay.
Chain of recombinant full-length PfCSP (Plasmodium falciparum circumsporozoite protein, strain NF54) (P19597 20-375): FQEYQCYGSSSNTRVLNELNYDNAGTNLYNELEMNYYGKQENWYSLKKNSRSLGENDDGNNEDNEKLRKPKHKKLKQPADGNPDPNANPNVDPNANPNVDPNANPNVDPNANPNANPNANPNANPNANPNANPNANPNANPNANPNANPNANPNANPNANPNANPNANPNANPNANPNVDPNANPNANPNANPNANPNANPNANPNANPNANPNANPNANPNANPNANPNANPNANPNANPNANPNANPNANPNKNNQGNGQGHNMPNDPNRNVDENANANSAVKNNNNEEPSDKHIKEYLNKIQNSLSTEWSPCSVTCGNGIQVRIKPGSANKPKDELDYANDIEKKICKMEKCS
Another experiment deals with T1, NANP6 peptide (Plasmodium falciparum NF54).
T1 construct: source: synthetic peptide (CPC Scientific)
As to the kind of experiment: SPR; Carterra LSA; mAb amine-coupled to a CMD200M chip, peptide titrated in 2-fold steps up to 8 ug/mL without regeneration; 25 C; HBSTE (10 mM HEPES pH 7.4, 150 mM NaCl, 3 mM EDTA, 0.01% Tween 20); 1:1 Langmuir model; mean of triplicates; KD includes avidity for antigens with several repeats. The note with it: both partners purified.

For experiment [2], the target named is T2, recombinant full-length PfCSP (strain NF54) (Plasmodium falciparum NF54, UniProt P19597).
T2 construct: also called NF54 PfCSP; Pf circumsporozoite protein; not shown: His tag, C-terminal, kept
T2 sequence (P19597 20-375): as above
Briefly: BLI; Octet RED96; His-tagged PfCSP on Ni-NTA biosensors, 2-fold dilutions of mAb; PBS pH 7.4, 0.01% BSA, 0.002% Tween 20; 1:1 binding model. The following applies: both partners purified.

B1: mAb Ky15.2 (human IgG1) (antibody, V domains shown)
VH: QVLLVESGGGVVQPGTSLRLSCVASGFSFSTYGMHWVRQSPGKGLEWVAIIWYDGGNKFYADSVQGRFTVSRDNSKNTLYLQMNSLRAEDTAVYYCAKAYRTSLDKKYGMDVWGQGTTVTVSS
VL: DIQMTQSPSTLSASVGDRVTITCRASQSIASWLAWYQQKPGKAPKLLIYKASSLESGVPSRFSGSGSGTEFTLTISSLHPDDFATYFCQQFTSYWTFGQGTKVEIK
For B1, the other in experiment [1] is less than 1.5 µg/mL.

B2: mAb Ky15.11 (human IgG1) (antibody, V domains shown)
VH: QVQLVESGGGVVQPGRSLRLSCEASGFTFSNFGMHWVRQTPVKGLEWVAIIWFDGSYKYYTDSVKGRFTISRDNSKNTLYLQMNSLRAEDTAVYYCARARKGQRSDYYGSETSYTFDNWGQGTLVTVSS
VL: B1 VL with A30N, S31G, L46F, S53I, V58I, H79Q, F87Y, F91Y, T92S
Regarding B2, the other in experiment [1] is less than 1.5 µg/mL.

B3: mAb Ky15.7 (human IgG1) (antibody, V domains shown)
VH: QVQVVESGGGAVQPGRSLRLSCAASGFTFSNRGMHWVRQTPGKGLEWVAIIWYDGGNKFYADSVKGRFTISRDNSKNTLYLQMNSLRDEDTAVYYCVRAGDWKADKYTMDVWGQGTTVTVSS
VL: B1 VL with A30S, L46V, K50Q, H79Q, F87Y, F91Y, T92N
Consider B3, for which the other in experiment [1] was less than 1.5 µg/mL.

B4: mAb 2541 (antibody, V domains shown)
VH: QVQLVESGGGVVQPGRSLRLSCAASGFTFSSYGMHWVRQTTGKGLEWVAIIWHDGSKKYYADSVKGRLTISRDNSKNTLYLQMNSLRVEDTALYYCARVGDYSDFKYGAFDIWGQGTMVTVSS
VL: B1 VL with A30S, K45N, S53T, H79Q, F87Y, F91Y, T92N, K102R
notes: also called 254121 (label with citation mark 21)
In the experiment with NANP6 peptide, B4 gave a Kd not above 0.133 nM, a koff not above 1e-05 s⁻¹ and a kon of 86600 M⁻¹ s⁻¹. For the same molecule, the kon in experiment [2] worked out at 71000 M⁻¹ s⁻¹.

B5: mAb Ky15.5 (human IgG1) (antibody, V domains shown)
VH: QVQMVASGGGVVQPGRSLRLSCAVSGFTFRNFGMHWVRQDPGRGLEWVAIIWYDGSYEFYADSVKGRFTISRDNSKNTLYLQMNSLRAEDTAVYYCARSYGSLTGDETKYGMDVWGQGTTVTVSS
VL: B1 VL with A30S, Y36F, H79Q, F87Y, F91Y, T92K, S93N
Consider B5, for which the other in experiment [1] was less than 1.5 µg/mL.

B6: mAb Ky15.3 (human IgG1) (antibody, V domains shown)
VH: QVQLVESGGGVVQPGRSLRLSCVASGFTFSNAGMHWVRQTPGKGLEWVAIIWYDGSIKYYGESVKGRFTISRDNSKNTLYLEMSSLRAEDTAVYFCVRAYSGSLYDKYGMDVWGQGTTVIVSS
VL: DIQMTQSPSTLSASVGDRVTISCRASQTISTWLAWFQQKPGKAPKLLIYAASSLQSGVPSRFSGSGSGTDFTLTISNLQPDDFATYYCQQFNSYWTFGQGTKVEIK
As to B6, the other in experiment [1] was less than 1.5 µg/mL.

B7: mAb Ky224 (human IgG1) (antibody, V domains shown)
VH: QVQLVESGGGVVQPGRSLRLSCAASGFTFSVYGMHWVRQAPGKGLEWVAVIWYDGSNKIYADSVKGRFTISRDNSKNTLYLQMDSLSAADTAVYYCAKIGSSSFDYWGQGTLVIVSS
VL: DIVMTQTPLSSPVTLGQPASISCRSSQSLVHSNGITYLSWLQQRPGQPPRLLLYEISNRFSGVPDRFSGSGTGTDFTLKISRVEAEDVGVYYCMQTTQFPITFGQGTRLEIK
As for B7, in experiment [1], the other was less than 1.5 µg/mL.

B8: mAb 317 (antibody, V domains shown)
VH: QMQLVESGGGVVQPGRSLRLSCTASGFTFSTYAMHWVRQSPGQGLQWVAVISYHSTNKYYEDSVRGRFTISRDNSKNTLYLQMNSLRAEDTAVYYCARDGYSSSFFDFWGQGTLVTVSS
VL: DIQMTQSPSTLSASVGDRVAITCRASQSISRWLAWYQQQPGKAPKLLMSGASVLESGVPSRFSGSGSGTEFTLTISSLQPDDFATYYCQHYNSYFVTFGQGTKVEIK
notes: also called 31715 (label with citation mark 15)
In the experiment with NANP6 peptide, B8 yielded a Kd of 0.404 nM, a koff of 0.000118 s⁻¹ and a kon of 292000 M⁻¹ s⁻¹. For the same molecule, in experiment [2], the kon came to 27200 M⁻¹ s⁻¹.

B9: mAb Ky15.10 (human IgG1) (antibody, V domains shown)
VH: QVQLVESGGGVVQPGRSLRLSCAASGFTFSNSGMHWVRQVPGKGLEWVAIIWYDGSNKYYADSVKGRFSVSRDNSENTLYLQMSNLRAEDTAVYYCVRAYFDSENLYDYYGMDVWGQGTTVTVSS
VL: DIQMTQSPSTLSASVGDRVTITCRASQSISRWLAWFQKKPGKAPKLLIYTASNLESGVPSRFSGSGSGTEFTLTISSLQPDDFATYYCQQYYNYWTFGQGTKVEVK
As to B9, in experiment [1], the other was less than 1.5 µg/mL.

B10: mAb Ky315 (human IgG1) (antibody, V domains shown)
VH: QVQLVESGGGVVQPGRSLRLSCAASGFTLSNYGVHWVRQAPGTGLEWVALIWYDGSNKFYADSVKGRFTISRDNSMDIVYLQMNNLRAEDTALYYCVRPGIAAAGSNYYAMDVWGQGTAVTVSS
VL: EIVMTQSPATLSMSPGERATLSCRASQSVGSDLAWFQQKPGQAPRLLIYGAFTRATGIPARFSGSGSGSEFTLTISSLQSEDFAVYYCQQYNRWWTFGQGTKVEMK
For B10, the other in experiment [1] is less than 1.5 µg/mL.

B11: mAb CIS43 (antibody, V domains shown)
VH: QVQLVQSGAEVKKPGASVKVSCKASGYTFTSYAIHWVRQAPGQRLEWMGWIKAGNGNTRYSQKFQDRVTITRDTSTTTAYMELSSLRSEDTAVYYCALLTVLTPDDAFDIWGQGTMVTVSS
VL: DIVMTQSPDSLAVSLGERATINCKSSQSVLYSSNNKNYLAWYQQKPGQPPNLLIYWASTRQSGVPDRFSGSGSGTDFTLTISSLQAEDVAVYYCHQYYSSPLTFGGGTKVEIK
notes: also called CIS4317 (label with citation mark 17)
In the experiment with NANP6 peptide, B11 registered a Kd of 54.9 nM, a koff of 0.00974 s⁻¹ and a kon of 179000 M⁻¹ s⁻¹. Also, in experiment [2], the kon worked out at 444000 M⁻¹ s⁻¹.

B12: mAb Ky15.8 (human IgG1) (antibody, V domains shown)
VH: QVQLVESGGNVVQPGRSLRLSCTASGFTFSSYGMHWVRQAPDKGLEWVAIIWYDGGNKFYADSVKGRFTISRDNSKDTLYLQMNSLRAEDTAVYYCAKAWYKIDDKYSMDVWGQGTTVTVSS
VL: not shown
For B12, in experiment [1], the other was less than 1.5 µg/mL.
